Data published in patent publication US20100297712A1.

Legend:
[1] = molecular target: vitamin D3 hydroxylase (VDH) of Pseudonocardia autotrophica NBRC12743 strain (Pseudonocardia autotrophica) (UniProt C4B644); test: cell-based or functional assay
[2] = molecular target: T1, vitamin D3 hydroxylase (VDH) of Pseudonocardia autotrophica NBRC12743 strain
T1 chain: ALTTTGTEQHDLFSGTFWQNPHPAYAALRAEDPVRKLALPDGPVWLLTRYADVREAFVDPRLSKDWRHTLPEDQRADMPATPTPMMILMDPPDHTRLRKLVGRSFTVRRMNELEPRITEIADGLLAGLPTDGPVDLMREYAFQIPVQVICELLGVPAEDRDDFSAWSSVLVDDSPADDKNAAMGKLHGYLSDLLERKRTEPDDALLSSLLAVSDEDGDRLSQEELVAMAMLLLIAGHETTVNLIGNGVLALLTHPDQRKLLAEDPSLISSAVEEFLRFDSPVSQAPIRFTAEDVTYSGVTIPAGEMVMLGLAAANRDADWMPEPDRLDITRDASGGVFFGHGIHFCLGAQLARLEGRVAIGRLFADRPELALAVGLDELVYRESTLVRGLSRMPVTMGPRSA

[3] = molecular target: T2, ferredoxin (ThcC) derived from Rhodococcus erythropolis strain NI86/21, P43493
T2 chain: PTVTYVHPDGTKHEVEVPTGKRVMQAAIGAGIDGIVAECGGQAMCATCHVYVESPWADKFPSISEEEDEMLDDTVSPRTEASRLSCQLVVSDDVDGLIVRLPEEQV

ferredoxin (ThcC) derived from Rhodococcus erythropolis strain NI86/21 (from UniProt P43493 2-107)
relative activity per expressed VDH, against the transformant expressing VDH solely [1]: 6 fold

B1: ferredoxin reductase (ThcD) derived from Rhodococcus erythropolis strain NI86/21 (protein)
chain: SIVIIGSGQAGFEAAVSLRSHGFSGTITLVGDEPGVPYQRPPLSKAYLHSDPDRESLALRPAQYFDDHRITLTCGKPVVRIDRDAQRVELIDATAIEYDHLILATGARNRLLPVPGANLPGVHYLRTAGEAESLTSSMASCSSLVVIGAGFIGLEVAAAARKKGLDVTVVEAMDRPMARALSSVMSGYFSTAHTEHGVHMRLSTGVKTINAADGRAAGVTTNSGDVIHADAVVVGIGVVPNIELAALTGLPVDNGIVVDEYLRTPDENISAIGDCAAYPIPGKAGLVRLESVQNAVDQARCLAAQLTGTSTHYRSVPWFWSEQYESKLQMAGLTAGADTHVVRGSVDSGVFSIFCFLGTRLLGVESVNKPRDHMAARKILATEMPLTPEQAADTDFDLKLAIARHKDTHKDEVASADIGERQVVAS
Activity (mmol/min/mol of VDH), VD3 conversion by Rhodococcus erythropolis transformant pTipQT-VDH-thcCD (mmol/min/mol of VDH) [2]: 119
relative activity per expressed VDH, against the transformant expressing VDH solely [2]: 6 fold

B2: vitamin D3 hydroxylase (VDH) of Pseudonocardia autotrophica NBRC12743 strain (protein)
chain: T1 chain
Activity (mmol/min/mol of VDH), VD3 conversion by Rhodococcus erythropolis transformant pTipQT-VDH-thcCD (mmol/min/mol of VDH) [3]: 119
